The results in this text go back to US20250122266A1, “SMART SINGLE-DOMAIN INTRABODIES WITH PRECISION SWITCHES FOR BIOMEDICAL APPLICATIONS” (THE TEXAS A&M UNIVERSITY SYSTEM, priority 2020, published 2025).

Read-outs that look alike come from different tables or passages of the source.

The target in test [1] is YFP-ORAI1 (UniProt Q96D31). The test can be described thus: cell-based or functional assay.
For test [2], the target named is Recombinant SARS-COV-2 Spike RBD (SARS-COV-2) (UniProt P0DTC2).
The target is the same in test [3]. Nature of the test: ELISA on immobilised RBD; read as the value without caffeine. For orientation: An ELISA detects its analyte on a solid surface through an enzyme-linked reagent.
Test [4] deals with NE-tethered mCh-lamin A (UniProt P02545). Nature of the test: NE/NP ratio of GFP signal in HeLa cells, before and after light.

Chain of YFP-ORAI1 (Q96D31 whole entry): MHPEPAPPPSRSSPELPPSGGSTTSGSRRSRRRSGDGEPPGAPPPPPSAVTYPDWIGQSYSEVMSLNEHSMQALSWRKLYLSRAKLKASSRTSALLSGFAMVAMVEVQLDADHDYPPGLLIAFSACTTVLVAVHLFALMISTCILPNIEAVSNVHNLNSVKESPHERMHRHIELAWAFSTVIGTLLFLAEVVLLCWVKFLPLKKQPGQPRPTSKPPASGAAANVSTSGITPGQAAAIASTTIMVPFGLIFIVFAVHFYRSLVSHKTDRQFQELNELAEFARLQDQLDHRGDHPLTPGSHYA
Chain of mCherry-COSMO-STIM1ct (Q13586 other isoform, or with tags, fused parts or gaps): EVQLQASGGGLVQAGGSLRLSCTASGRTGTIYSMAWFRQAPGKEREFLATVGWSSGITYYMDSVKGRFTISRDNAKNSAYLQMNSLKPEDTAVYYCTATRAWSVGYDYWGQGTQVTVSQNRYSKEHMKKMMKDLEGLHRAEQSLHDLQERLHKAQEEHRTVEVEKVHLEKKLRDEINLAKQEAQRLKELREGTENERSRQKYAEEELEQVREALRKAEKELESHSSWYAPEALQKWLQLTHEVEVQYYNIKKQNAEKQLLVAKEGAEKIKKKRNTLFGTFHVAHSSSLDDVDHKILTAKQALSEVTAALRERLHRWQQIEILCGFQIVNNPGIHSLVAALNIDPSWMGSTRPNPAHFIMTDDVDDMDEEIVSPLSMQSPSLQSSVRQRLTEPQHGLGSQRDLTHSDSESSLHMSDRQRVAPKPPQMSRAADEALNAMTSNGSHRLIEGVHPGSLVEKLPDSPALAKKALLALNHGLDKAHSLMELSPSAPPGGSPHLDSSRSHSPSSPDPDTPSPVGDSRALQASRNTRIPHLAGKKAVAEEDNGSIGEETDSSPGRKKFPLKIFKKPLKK

For the substance “mCherry-COSMO-STIM1ct (from UniProt Q13586 233-685)”, in test [1], the calcium influx (GCaMP6s) after 1 µM caffeine, activation half-life is 1.63 min.
As for MBP-COSMO-VHH72, the figures for the apparent binding affinity in test [2] and in test [3] were 18 nM and 29 nM, respectively.
With “GFP-sunbody variant S0 (LOV2 fused to the N-terminus of LaM8) (VHH)”, in test [4], the increase in the NE/NP ratio after photostimulation was 10%.
